Experimental data: paper PMC11383374

Target: the protein biologic (purified DNASE1-Fc enzyme biologic analysed by size-exclusion chromatography with light scattering) (not stated (murine and human isoforms were made)) (UniProt P49183)
Experiment: SEC-MALS; size-exclusion chromatography with light scattering; two separate concentrations of sample loading; single peak; hydrodynamic radius 5.3 nm

the protein biologic (purified DNASE1-Fc enzyme biologic analysed by size-exclusion chromatography with light scattering) (from UniProt P49183 23-284) (Fc fusion)
stoichiometry N: 2
